Assay [1] addresses T1, FcγRIIIa extracellular domain with C-terminal His tag (human, UniProt P08637 17-208).
T1 construct: extracellular domain; also called FcgRIIIa; 3a; not shown: His tag attached to the C terminus
Kind of assay: SPR (Biacore); He/Con_3a divided by He/Con_2b (reference: binding to FcγRIIb). The procedure:
(§1) Analysis of interaction between objective antibody and the FcγR was carried out using Biacore T100 (GE Healthcare). HBS-EP+ (GE Healthcare) was used as the running buffer, and the measurement temperature was set to 25° C. Chips produced by immobilizing the antigen peptide by the amine coupling method to a Series S Sencor Chip CM5 (GE Healthcare), or alternatively, chips produced by allowing preliminarily biotinylated antigen peptides to interact with and immobilize onto a Series S Sensor Chip SA (certified) (GE Healthcare) were used. Antibodies of interest were captured onto an antigen peptide-immobilized chip, and allowed to interact to each FcγR diluted with running buffer. To regenerate and repeatedly use the chip, the antibodies captured on the chip were washed off by reacting 10 mM glycine-HCl, pH 1.5.
(§2) The FcγR-binding activity of each antibody was assessed primarily using as an indicator the FcγR-binding activity and dissociation constant for FcγR.

Assay [2] addresses T1, FcγRIIIa extracellular domain with …. As to the kind of experiment: SPR (Biacore), relative binding. The protocol: as §1, §2
The target in assay [3] is T2, FcγRIIb extracellular domain with C-terminal His tag (human, UniProt P31994 43-217).
T2 construct: extracellular domain; also called FcgRIIb; 2b; not shown: His tag attached to the C terminus
T2 sequence (looked up): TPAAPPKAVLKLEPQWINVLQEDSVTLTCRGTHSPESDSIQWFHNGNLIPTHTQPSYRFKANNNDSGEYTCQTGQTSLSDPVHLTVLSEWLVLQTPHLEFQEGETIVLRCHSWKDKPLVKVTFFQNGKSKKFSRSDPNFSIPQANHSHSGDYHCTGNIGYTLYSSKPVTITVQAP
As to the kind of experiment: SPR (Biacore), relative binding. The protocol:
as §1, §2

T1 sequence (P08637 17-208): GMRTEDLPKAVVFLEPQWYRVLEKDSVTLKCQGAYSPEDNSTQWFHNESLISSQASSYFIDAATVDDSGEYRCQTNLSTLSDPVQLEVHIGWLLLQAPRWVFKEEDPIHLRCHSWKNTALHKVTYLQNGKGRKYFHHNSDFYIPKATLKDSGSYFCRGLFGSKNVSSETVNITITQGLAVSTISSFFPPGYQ

B1: GpH7-A5/GpH7-B3 variant K326_20W/GpL16-k0 (antibody, human IgG1, kappa)
heavy 1: not shown
heavy 2: not shown
light: DIVMTQSPLSLPVTPGEPASISCQASESLVHSNRNTYLHWYLQKPGQSPQLLIYKVSNRFSGVPDRFSGSGSGTDFTLKISRVEAEDVGVYYCSQNTHVPPTFGQGTKVEIERTVAAPSVFIFPPSDEQLKSGTASVVCLLNNFYPREAKVQWKVDNALQSGNSQESVTEQDSKDSTYSLSSTLTLSKADYEKHKVYACEVTHQGLSSPVTKSFNRGEC
notes: Heterodimerized IgG1; alteration in one H chain only; also called He Ab
Consider B1, for which the “He_3a/2b (IIIa/IIb)” value in assay [1] came to 0.57 ratio. In addition, the “He/Con_3a (IIIa binding)” value in assay [2] was 84.8 % of GpH7-A5/GpH7-B3/GpL16-k0 (=100). For the same molecule, in assay [3], the “He/Con_2b (IIb binding)” value was 148 % of GpH7-A5/GpH7-B3/GpL16-k0 (=100).

B2: GpH7-A5/GpH7-B3 variant N325_02A/GpL16-k0 (antibody, human IgG1, kappa)
heavy 1: not shown
heavy 2: not shown
light: DIVMTQSPLSLPVTPGEPASISCQASESLVHSNRNTYLHWYLQKPGQSPQLLIYKVSNRFSGVPDRFSGSGSGTDFTLKISRVEAEDVGVYYCSQNTHVPPTFGQGTKVEIERTVAAPSVFIFPPSDEQLKSGTASVVCLLNNFYPREAKVQWKVDNALQSGNSQESVTEQDSKDSTYSLSSTLTLSKADYEKHKVYACEVTHQGLSSPVTKSFNRGEC
notes: as for B1
As to B2, the “He_3a/2b (IIIa/IIb)” value in assay [1] stood at 0.47 ratio. The “He/Con_3a (IIIa binding)” value in assay [2] is 30.5 % of GpH7-A5/GpH7-B3/GpL16-k0 (=100). For the same molecule, the “He/Con_2b (IIb binding)” value in assay [3] is 64.4 % of GpH7-A5/GpH7-B3/GpL16-k0 (=100).

B3: GpH7-A5/GpH7-B3 variant L328_03V/GpL16-k0 (antibody, human IgG1, kappa)
heavy 1: not shown
heavy 2: not shown
light: DIVMTQSPLSLPVTPGEPASISCQASESLVHSNRNTYLHWYLQKPGQSPQLLIYKVSNRFSGVPDRFSGSGSGTDFTLKISRVEAEDVGVYYCSQNTHVPPTFGQGTKVEIERTVAAPSVFIFPPSDEQLKSGTASVVCLLNNFYPREAKVQWKVDNALQSGNSQESVTEQDSKDSTYSLSSTLTLSKADYEKHKVYACEVTHQGLSSPVTKSFNRGEC
notes: as for B1
Take B3: in assay [1], the “He_3a/2b (IIIa/IIb)” value amounted to 0.63 ratio. Besides, the “He/Con_3a (IIIa binding)” value in assay [2] is 78.7 % of GpH7-A5/GpH7-B3/GpL16-k0 (=100). For the same molecule, the “He/Con_2b (IIb binding)” value in assay [3] is 126 % of GpH7-A5/GpH7-B3/GpL16-k0 (=100).

B4: GpH7-A5/GpH7-B3 variant N325_05P/GpL16-k0 (antibody, human IgG1, kappa)
heavy 1: not shown
heavy 2: not shown
light: DIVMTQSPLSLPVTPGEPASISCQASESLVHSNRNTYLHWYLQKPGQSPQLLIYKVSNRFSGVPDRFSGSGSGTDFTLKISRVEAEDVGVYYCSQNTHVPPTFGQGTKVEIERTVAAPSVFIFPPSDEQLKSGTASVVCLLNNFYPREAKVQWKVDNALQSGNSQESVTEQDSKDSTYSLSSTLTLSKADYEKHKVYACEVTHQGLSSPVTKSFNRGEC
notes: as for B1
On to B4, for which the “He_3a/2b (IIIa/IIb)” value in assay [1] came to 0.39 ratio. Besides, the “He/Con_3a (IIIa binding)” value in assay [2] was 10.2 % of GpH7-A5/GpH7-B3/GpL16-k0 (=100). For the same molecule, the “He/Con_2b (IIb binding)” value in assay [3] was 26 % of GpH7-A5/GpH7-B3/GpL16-k0 (=100).

B5: GpH7-A5/GpH7-B3 variant N325_08L/GpL16-k0 (antibody, human IgG1, kappa)
heavy 1: not shown
heavy 2: not shown
light: DIVMTQSPLSLPVTPGEPASISCQASESLVHSNRNTYLHWYLQKPGQSPQLLIYKVSNRFSGVPDRFSGSGSGTDFTLKISRVEAEDVGVYYCSQNTHVPPTFGQGTKVEIERTVAAPSVFIFPPSDEQLKSGTASVVCLLNNFYPREAKVQWKVDNALQSGNSQESVTEQDSKDSTYSLSSTLTLSKADYEKHKVYACEVTHQGLSSPVTKSFNRGEC
notes: as for B1
B5: in assay [1], the “He_3a/2b (IIIa/IIb)” value is 0.17 ratio. Also, the “He/Con_3a (IIIa binding)” value in assay [2] was 33.3 % of GpH7-A5/GpH7-B3/GpL16-k0 (=100). The “He/Con_2b (IIb binding)” value in assay [3] is 197 % of GpH7-A5/GpH7-B3/GpL16-k0 (=100).

B6: GpH7-A5/GpH7-B3 variant N325_06M/GpL16-k0 (antibody, human IgG1, kappa)
heavy 1: not shown
heavy 2: not shown
light: DIVMTQSPLSLPVTPGEPASISCQASESLVHSNRNTYLHWYLQKPGQSPQLLIYKVSNRFSGVPDRFSGSGSGTDFTLKISRVEAEDVGVYYCSQNTHVPPTFGQGTKVEIERTVAAPSVFIFPPSDEQLKSGTASVVCLLNNFYPREAKVQWKVDNALQSGNSQESVTEQDSKDSTYSLSSTLTLSKADYEKHKVYACEVTHQGLSSPVTKSFNRGEC
notes: as for B1
Regarding B6, in assay [1], the “He_3a/2b (IIIa/IIb)” value is 0.14 ratio. Also, the “He/Con_3a (IIIa binding)” value in assay [2] is 31.4 % of GpH7-A5/GpH7-B3/GpL16-k0 (=100). The “He/Con_2b (IIb binding)” value in assay [3] is 217 % of GpH7-A5/GpH7-B3/GpL16-k0 (=100).

B7: GpH7-A5/GpH7-B3 variant N325_04F/GpL16-k0 (antibody, human IgG1, kappa)
heavy 1: not shown
heavy 2: not shown
light: DIVMTQSPLSLPVTPGEPASISCQASESLVHSNRNTYLHWYLQKPGQSPQLLIYKVSNRFSGVPDRFSGSGSGTDFTLKISRVEAEDVGVYYCSQNTHVPPTFGQGTKVEIERTVAAPSVFIFPPSDEQLKSGTASVVCLLNNFYPREAKVQWKVDNALQSGNSQESVTEQDSKDSTYSLSSTLTLSKADYEKHKVYACEVTHQGLSSPVTKSFNRGEC
notes: as for B1
With B7, the “He_3a/2b (IIIa/IIb)” value in assay [1] is 0.14 ratio. In addition, the “He/Con_3a (IIIa binding)” value in assay [2] was 20.7 % of GpH7-A5/GpH7-B3/GpL16-k0 (=100). The “He/Con_2b (IIb binding)” value in assay [3] is 143 % of GpH7-A5/GpH7-B3/GpL16-k0 (=100).

B8: GpH7-A5/GpH7-B3 variant L328_04F/GpL16-k0 (antibody, human IgG1, kappa)
heavy 1: not shown
heavy 2: not shown
light: DIVMTQSPLSLPVTPGEPASISCQASESLVHSNRNTYLHWYLQKPGQSPQLLIYKVSNRFSGVPDRFSGSGSGTDFTLKISRVEAEDVGVYYCSQNTHVPPTFGQGTKVEIERTVAAPSVFIFPPSDEQLKSGTASVVCLLNNFYPREAKVQWKVDNALQSGNSQESVTEQDSKDSTYSLSSTLTLSKADYEKHKVYACEVTHQGLSSPVTKSFNRGEC
notes: as for B1
Turning to B8, in assay [1], the “He_3a/2b (IIIa/IIb)” value is 0.36 ratio. Moreover, the “He/Con_3a (IIIa binding)” value in assay [2] is 79.3 % of GpH7-A5/GpH7-B3/GpL16-k0 (=100). Moreover, the “He/Con_2b (IIb binding)” value in assay [3] is 219 % of GpH7-A5/GpH7-B3/GpL16-k0 (=100).

The values above are taken from patent US20180155451A1 (published 2018).
